In this test the target is 6X His-Raf1 (purified recombinant) (UniProt P04049 1-648, fluorescent label in the MST (kind and site not stated)). Briefly: MST.

The values that follow come from article PMC10942467 (bioRxiv, 2024).

The Kd is the free concentration of one partner at which half of the binding sites on the other are occupied at equilibrium, for simple one-to-one binding.

B1: GLS (purified recombinant) (enzyme)
chain: HPWWGGGGWPAEPLARGLSSSPSEILQELGKGSTHPQPGVSPPAAPAAPGPKDGPGETDAFGNSEGKELVASGENKIKQGLLPSLEDLLFYTIAEGQEKIPVHKFITALKSTGLRTSDPRLKECMDMLRLTLQTTSDGVMLDKDLFKKCVQSNIVLLTQAFRRKFVIPDFMSFTSHIDELYESAKKQSGGKVADYIPQLAKFSPDLWGVSVCTVDGQRHSTGDTKVPFCLQSCVKPLKYAIAVNDLGTEYVHRYVGKEPSGLRFNKLFLNEDDKPHNPMVNAGAIVVTSLIKQGVNNAEKFDYVMQFLNKMAGNEYVGFSNATFQSERESGDRNFAIGYYLKEKKCFPEGTDMVGILDFYFQLCSIEVTCESASVMAATLANGGFCPITGERVLSPEAVRNTLSLMHSCGMYDFSGQFAFHVGLPAKSGVAGGILLVVPNVMGMMCWSPPLDKMGNSVKGIHFCHDLVSLCNFHNYDNLRHFAKKLDPRREGGDQRVKSVINLLFAAYTGDVSALRRFALSAMDMEQRDYDSRTALHVAAAEGHVEVVKFLLEACKVNPFPKDRWNNTPMDEALHFGHHDVFKILQEYQVQYTPQGDSDNGKENQTVHKNLDGLL
Regarding B1, the Kd was determined as 183 nM.
